Patent publication US20210395381A1 (OSSIANIX, published 2021)

Columns and labels:
recombinant mouse TfR-1 [1] = target: T1, recombinant mouse TfR-1 (mouse, UniProt Q62351 89-763); assay: phage ELISA
T1 construct: Bought recombinant protein; also called mTfR1
How it was run: (§1)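 Binding read out colorimetrically (TMB) via HRP-labelled anti-M13 antibody. Plates coated at 1 μg/ml with recombinant TfR-1 and milk-blocked; milk-blocked single-clone phage supernatants from third-round selection applied.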
T1 sequence (Q62351 89-763 limits assumed): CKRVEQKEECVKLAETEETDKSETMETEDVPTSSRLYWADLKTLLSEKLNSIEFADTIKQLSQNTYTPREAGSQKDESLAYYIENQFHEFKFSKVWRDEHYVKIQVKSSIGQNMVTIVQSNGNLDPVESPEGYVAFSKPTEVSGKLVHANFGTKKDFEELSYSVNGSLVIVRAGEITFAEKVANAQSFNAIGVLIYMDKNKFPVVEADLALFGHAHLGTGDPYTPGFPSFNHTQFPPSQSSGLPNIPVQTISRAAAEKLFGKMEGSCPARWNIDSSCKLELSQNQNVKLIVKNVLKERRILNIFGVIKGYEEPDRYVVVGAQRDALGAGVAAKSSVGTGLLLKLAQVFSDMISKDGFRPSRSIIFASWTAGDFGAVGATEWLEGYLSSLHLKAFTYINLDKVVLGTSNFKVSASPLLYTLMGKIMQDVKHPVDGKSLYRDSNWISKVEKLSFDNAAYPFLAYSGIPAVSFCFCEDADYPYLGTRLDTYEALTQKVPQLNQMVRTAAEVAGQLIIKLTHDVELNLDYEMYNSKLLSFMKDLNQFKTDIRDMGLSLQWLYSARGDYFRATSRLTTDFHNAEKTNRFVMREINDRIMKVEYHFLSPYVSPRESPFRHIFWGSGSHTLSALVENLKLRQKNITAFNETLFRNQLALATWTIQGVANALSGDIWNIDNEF

recombinant human TfR-1 [2] = target: T2, recombinant human TfR-1 (human, UniProt P02786 89-760); assay: phage ELISA
T2 construct: extracellular domain; also called hTfR1; human transferrin receptor-1
How it was run: as §1
T2 sequence (P02786 89-760): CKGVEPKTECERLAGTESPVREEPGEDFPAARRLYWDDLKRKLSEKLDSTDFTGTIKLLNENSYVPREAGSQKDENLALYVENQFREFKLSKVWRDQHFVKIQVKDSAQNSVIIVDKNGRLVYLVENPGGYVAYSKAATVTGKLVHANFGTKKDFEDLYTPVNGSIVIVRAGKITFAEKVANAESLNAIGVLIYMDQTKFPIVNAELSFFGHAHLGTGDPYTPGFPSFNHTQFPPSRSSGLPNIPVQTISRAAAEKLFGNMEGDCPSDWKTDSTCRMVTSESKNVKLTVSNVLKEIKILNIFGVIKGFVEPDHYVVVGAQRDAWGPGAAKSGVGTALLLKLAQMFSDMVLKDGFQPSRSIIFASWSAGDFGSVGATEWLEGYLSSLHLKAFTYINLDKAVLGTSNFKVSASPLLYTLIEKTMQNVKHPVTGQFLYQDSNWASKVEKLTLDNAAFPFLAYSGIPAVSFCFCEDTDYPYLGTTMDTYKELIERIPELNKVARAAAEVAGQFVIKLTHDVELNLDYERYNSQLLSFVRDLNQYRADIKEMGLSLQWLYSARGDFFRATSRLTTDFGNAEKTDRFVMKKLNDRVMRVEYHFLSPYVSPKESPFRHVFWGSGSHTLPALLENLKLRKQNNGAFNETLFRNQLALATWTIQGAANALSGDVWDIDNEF

recombinant mouse TfR-1 [3] = target: T1, recombinant mouse TfR-1; assay: ELISA titration, large-scale purified VNAR-hFc
recombinant human TfR-1 [4] = target: T2, recombinant human TfR-1; assay: ELISA titration, large-scale purified VNAR-hFc
recombinant human TfR-1 [5] = target: T3, recombinant human TfR-1 (human, UniProt P02786 89-760); assay: phage ELISA, VNAR-phage on plate-coated recombinant human TfR-1
T3 construct: also called hTfR1; human transferrin receptor-1
T3 sequence (P02786 89-760 limits assumed): as the sequence (P02786 89-760) above

recombinant mouse TfR-1 [6] = target: T4, recombinant mouse TfR-1 (mouse, UniProt Q62351 89-763); assay: phage ELISA, VNAR-phage on plate-coated recombinant mouse TfR-1
T4 construct: Coated at 1 ug/ml for the phage ELISA; also called mTfR1; mouse transferrin receptor-1
T4 sequence (Q62351 89-763 limits assumed): as the sequence (Q62351 89-763 limits assumed) above

Binder | phage ELISA A450 (recombinant human TfR-1 [5]) | phage ELISA A450 (recombinant mouse TfR-1 [6]) | other results
Clone 9 (VNAR, VNAR on phage) VNAR: ARVDQTPQTITKETGESLTINCVLRDSNCALPSTWYRKKSDSTNEESISKGGRYVETVNSGSKSFSLRINDLTVKDSGTYRCKVLYPNCYRCMWGQVTDVYGGGTAVTVNA |  |  | binding result (recombinant mouse TfR-1 [1]): binds; binding result (recombinant human TfR-1 [2]): binds
Clone 8.5 VNAR-hFc fusion (Fc fusion, human, not shown: small tags and cut ends, domain: Fc (CH2 and CH3); also called the variant) chain (part 1 of 2): ARVDQTPQTITKETGESLTINCVLRDSNCALPSTYWYRKKSGSTNEESISKGGRYVETVNSGSKSFSLRINDLTVEDSGTYRCKVIAQLGWWLRGCNYRKHDVYGDGTAVTVNA chain (part 2 of 2): DKTHTCPPCPAPPVAGPSVFLFPPKPKDTLMISRTPEVTCVVVDVSHEDPEVKFNWYVDGVEVHNAKTKPREEQYNSTYRVVSVLTVLHQDWLNGKEYKCKVSNKGLPSSIEKTISKAKGQPREPQVYTLPPSRDELTKNQVSLTCLVKGFYPSDIAVEWESNGQPENNYKTTPPVLDSDGSFFLYSKLTVDKSRWQQGNVFSCSVMHEALHNHYTQKSLSLSPGK |  |  | EC50 (recombinant mouse TfR-1 [3]): 47 nM; fold difference of EC50 against parental Clone 8 (recombinant mouse TfR-1 [3]): > 25 fold; EC50 (recombinant human TfR-1 [4]): 27 nM; fold difference of EC50 against parental Clone 8 (recombinant human TfR-1 [4]): > 25 fold
Clone 8.149 (VNAR) VNAR: ARVDQTPQTITKETGESLTINCVLRDSNCALPSTYWYRKKSGSTNEESISKGGRYVETVNSGSKSFSLRINDLTVEDSGTYRCKVIAQLSSILRGCNYHPHDVYGDGTAVTVNA | 0.052 A450 | 0.045 A450 | 
Clone 8.157 (VNAR) VNAR: ARVDQTPQTITKETGESLTINCVLRDSNCALPSTYWYRKKSGSTNEESISKGGRYVETVNSGSKSFSLRINDLTVEDSGTYRCKVIAYRKSIVRGCNYRKHDVYGDGTAVTVNA | 0.048 A450 | 0.044 A450 | 
Clone 8.162 (VNAR) VNAR: ARVDQTPQTITKETGESLTINCVLRDSNCALPSTYWYRKKSGSTNEESISKGGRYVETVNSGSKSFSLRINDLTVEDSGTYRCKVIAQLSSNRNGCNYRKHDVYGDGTAVTVNA | 0.055 A450 | 0.042 A450 | 
Clone 8.150 (VNAR) VNAR: ARVDQTPQTITKETGESLTINCVLRDSNCALPSTYWYRKKSGSTNEESISKGGRYVETVNSGSKSFSLRINDLTVEDSGTYRCKVIAQLSSILRGCNYNQQDVYGDGTAVTVNA | 0.058 A450 | 0.045 A450 | 
Clone 8.153 (VNAR) VNAR: ARVDQTPQTITKETGESLTINCVLRDSNCALPSTYWYRKKSGSTNEESISKGGRYVETVNSGSKSFSLRINDLTVEDSGTYRCKVIAQLAFGLRGCNYRKHDVYGDGTAVTVNA | 0.048 A450 | 0.044 A450 | 
Clone 8.161 (VNAR) VNAR: ARVDQTPQTITKETGESLTINCVLRDSNCALPSTYWYRKKSGSTNEESISKGGRYVETVNSGSKSFSLRINDLTVEDSGTYRCKVIAQLSSILRGCIAGKHDVYGDGTAVTVNA | 0.048 A450 | 0.043 A450 | 
Clone 8.152 (VNAR) VNAR: ARVDQTPQTITKETGESLTINCVLRDSNCALPSTYWYRKKSGSTNEESISKGGRYVETVNSGSKSFSLRINDLTVEDSGTYRCKVMDQLSNMLRGCNYRKHDVYGDGTAVTVNA | 0.059 A450 | 0.045 A450 | 
Clone 8.154 (VNAR) VNAR: ARVDQTPQTITKETGESLTINCVLRDSNCALPSTYWYRKKSGSTNEESISKGGRYVETVNSGSKSFSLRINDLTVEDSGTYRCKVIAQLSSILRGCGGSKHDVYGDGTAVTVNA | 0.055 A450 | 0.044 A450 | 
Clone 8.155 (VNAR) VNAR: ARVDQTPQTITKETGESLTINCVLRDSNCALPSTYWYRKKSGSTNEESISKGGRYVETVNSGSKSFSLRINDLTVEDSGTYRCKVIAQLSSILRGCNYKIADVYGDGTAVTVNA | 0.053 A450 | 0.044 A450 | 
Clone 8.159 (VNAR) VNAR: ARVDQTPQTITKETGESLTINCVLRDSNCALPSTYWYRKKSGSTNEESISKGGRYVETVNSGSKSFSLRINDLTVEDSGTYRCKVIAQLSSDGQGCNYRKHDVYGDGTAVTVNA | 0.057 A450 | 0.043 A450 | 
Clone 8.156 (VNAR) VNAR: ARVDQTPQTITKETGESLTINCVLRDSNCALPSTYWYRKKSGSTNEESISKGGRYVETVNSGSKSFSLRINDLTVEDSGTYRCKVIAQLSSQSVGCNYRKHDVYGDGTAVTVNA | 0.062 A450 | 0.044 A450 | 
Clone 8.160 (VNAR) VNAR: ARVDQTPQTITKETGESLTINCVLRDSNCALPSTYWYRKKSGSTNEESISKGGRYVETVNSGSKSFSLRINDLTVEDSGTYRCKVIAQLSSILRGCFPQKHDVYGDGTAVTVNA | 0.049 A450 | 0.043 A450 | 
Clone 8.151 (VNAR) VNAR: ARVDQTPQTITKETGESLTINCVLRDSNCALPSTYWYRKKSGSTNEESISKGGRYVETVNSGSKSFSLRINDLTVEDSGTYRCKVIAQLSSLERGCNYFQFDVYGDGTAVTVNA | 0.048 A450 | 0.045 A450 | 
Clone 8.158 (VNAR) VNAR: ARVDQTPQTITKETGESLTINCVLRDSNCALPSTYWYRKKSGSTNEESISKGGRYVETVNSGSKSFSLRINDLTVEDSGTYRCKVIAQLNVILRGCNYRKHDVYGDGTAVTVNA | 0.046 A450 | 0.043 A450 | 
